Values of other authors as cited in publication PMC2660313.

Molecular target: Dystrophin WW domain+EF-hand (Drosophila melanogaster) (UniProt Q9VDW6)
Sequence (Q9VDW6 2840-3106): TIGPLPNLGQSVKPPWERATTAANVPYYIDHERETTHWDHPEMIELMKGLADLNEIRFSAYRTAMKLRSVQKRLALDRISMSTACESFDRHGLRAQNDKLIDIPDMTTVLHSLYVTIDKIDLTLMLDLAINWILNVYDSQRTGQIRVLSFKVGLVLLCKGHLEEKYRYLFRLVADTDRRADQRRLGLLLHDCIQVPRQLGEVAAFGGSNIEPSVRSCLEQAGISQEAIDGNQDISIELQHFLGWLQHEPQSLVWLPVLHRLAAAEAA

Kd: 248 µM
Substance: p53 peptide (negative control) (from UniProt P04637)
